Source: patent publication US20230287087A1 (MAX PLANCK GESELLSCHAFT ZUR F RDERUNG DER WISSENSCHAFTEN E V, published 2023)
Where a chain is given by its changes, count along the chain named. Several values for one entry are separate records, joined by “and”; a condition that tells them apart may be missing. Equal values may be shown once.

B1: Re9F06-SpacerA-Re5D06R28D (bispecific antibody)
chain: GSQVQLVESGGGLVQAGGSLRLSCAASGRTFSNDALGWFRQAPRKEREFVAAINWNSGTYYADSVKGRFTISRDNAKNTVYLQMNSLKPEDTAVYSCAAASDYGLPREDFLYDYWGQGTQVTVSSTSGEGEGGEGGEGSQVQLVESGGGLVQPGGSLRLSCAISGSTLDYYAMGWFREAPGKEREGVARWRNNDGSTNYADSVKGRFTMSRDNAKDTYYLQMNSLEPEDTADYYCAYGPLTKYGDEWHWPYEYDYWGQGTQVTVSSTS
B2: Re9F06-SpacerA-Re9B09 (bispecific antibody)
chain: GSQVQLVESGGGLVQAGGSLRLSCAASGRTFSNDALGWFRQAPRKEREFVAAINWNSGTYYADSVKGRFTISRDNAKNTVYLQMNSLKPEDTAVYSCAAASDYGLPREDFLYDYWGQGTQVTVSSTSGEGEGGEGGEGSQVQLVESGGGLVQPGGSLRLSCAASGFTLDYYAIGWFRQAPGKEREGVSRISSSDGSTDYADSVKGRFTISRDNAKNTVYLQMNSLKPEDTAVYYCATVPGTYYSGNWYYTWHPEAVDYWGKGTQVTVSSTS
B3: Re6B06 (VHH)
VHH: QVQLVESGGGLVQAGGSLRLSCAASGRAFSSAPMSWFRQAPGKEREFVASVSWSGDSTNYADSVKGRFTISRDNAKNTGYLQMNSLKPEDTAVYYCKRGPYWGQGTQVTVSS
B4: Re7H02 (VHH)
VHH: B3 VHH with S30E, K76E
B5: Re6D06 (VHH)
VHH: QVQLVESGGGLVQAGASLRLSCAASGRMFGVYRMGWFRQAPGKEREFVAGISTSVGTTNYADSVKGRFTISRDNAKNTVYLQMNSLKPEDTAVYYCAARDPTTYEYDYWGQGTQVTVSS
B6: Re6A11 (VHH)
VHH: QVQLVESGGGLVQAGGSLRLSCAASGRTFSNDALGWFRQAPRKEREFVAAINWNSGTYYADSVKGRFTISRDNAKNTVYLQMNSLKPEDTAVYSCAAASDYGLPREDFLYDYWGQGTLVTVSS
B7: Re6A11/Re9F06 ColXVIII trimer (VHH)
VHH: B6 VHH
B8: Re5A08 (VHH)
VHH: QVQLVESGGGLVQAGGSLRLSCTASGHTFTANRMGWFRQAPGKEREFVAAINWGGDSTNYVDSVKGRFTISRDIAKNTVYLQMNSLKPEDTAVYFCAARNHVTGEFDSWGQGTQVTVSS
B9: Re9H03 (VHH)
VHH: QVQLVESGGGLVQPGGSLRLSCAASGFTLDYYAIGWFRQAPGKEREGVSRISSSDGSTDYADSVKGRFTISRDNAKNTVYLQMNSLKPEDTAVYYCATVPGTYYSGNWYYTWHPKAVDYWGKGTLVTVSS
B10: Re5F10 (VHH)
VHH: QVQLVESGGGLVQPGGSLRLSCVASGFTFSSFAMGWYRQAPGKECEWVATITITGGSTNYADSVKGRFTISRDNAKNTVYLQMNSLKPEDTAVYYCNPDPGCRRGQGTQVTVSS
B11: Re6H06 (VHH)
VHH: QVQLVESGGGLVQPGGSLRLSCAASGVTLDYYAIGWFRQAPGKEREGVSCTSSSDGSTYYADSVKGRFTISRDNAKNTVYLQMNSLKPEDTGVYYCAVVPQTYYGGKYYSQCTANGMDYWGKGTLVTVSS
B12: Re5D06 (VHH)
VHH: QVQLVESGGGLVQPGGSLRLSCAASGITLDYYAIGWFRQAPGKEREGVSRIRSSDGSTNYADSVKGRFTMSRDNAKNTVYLQMNSLKPEDTAVYYCAYGPLTKYGSSWYWPYEYDYWGQGTQVTVSS
B13: Re5D06R15 (VHH)
VHH: B12 VHH with I34M, Q39E, S49A, S53N, N77D, V79Y, K87E, V93D
B14: Re5D06R28 (VHH)
VHH: QVQLVESGGGLVQPGGSLRLSCAISGSTLDYYAMGWFREAPGKEREGVARWRNNDGSTNYADSVKGRFTMSRDNAKDTYYLQMNSLEPEDTADYYCAYGPLTKYGSSWHWPYEYDYWGQGTQVTVSS
B15: Re9B09 (VHH)
VHH: B9 VHH with K115E, L125Q
B16: Re9C08 (VHH)
VHH: QVQLVESGGGLVQPGGSLRLSCAVSGNIFGITAWDWHRQAPGKQRELVAHITSRGDTYYLDSVKGRFAISRDHAKNTLSLQMNSLKPEDTAVYYCYLRTFGPPNDHWGQGTQVTVSS
B17: Re9B10 (VHH)
VHH: B5 VHH with A14P, A16G
B18: Re7E02 (VHH)
VHH: QVQLVESGGGLVQAGGSLRLSCAASGFTLDYYAIGWFRQAPGKEREGVSYIRSSDGTTYYADSVKGRFTISRDNAKNTVYLQMNSLKPEDTAVYYCAADEAYYSELGWESPWGWSYWGQGTQVTVSS
B19: Re9H01 (VHH)
VHH: QVQLVESGGGLVQAGDSLRLSCAASGNIFSINAMGWYRQAPGKQRELVAFITSRGSTNYTDSVKGRFTISRDTAKDTVYLQMNSLKPEDTAVYFCRGGYSDYDIYFGSWGQGTQVTVSS
B20: Re9F06 (VHH)
VHH: B6 VHH with L118Q
B21: Re10B10 (VHH)
VHH: B12 VHH with I27F, N59T, M70I
B22: Re10F10 (VHH)
VHH: B12 VHH with I27F, S53N, S54N, N59D, M70I
B23: Re7B01 (VHH)
VHH: B12 VHH with A23G, I27F, S54N, N59D, M70I
B24: Re6B02 (VHH)
VHH: B12 VHH with G10A, A23V, I27F, M70I

target: T1, SARS-CoV-2 spike receptor-binding domain (RBD), wild type (SARS-CoV-2, UniProt P0DTC2 319-541); assay: BLI, biotinylated VHH heterodimer on streptavidin sensor, RBD in solution

Binder	Kd
B1	≤ 10 pM
B2	≤ 10 pM

target: T2, B.1.617.2/Delta RBD (40592-V08H90, Sino Biologicals) (SARS-CoV-2, UniProt P0DTC2 319-541); assay: as above

Binder	Kd
B1	≤ 10 pM
B2	≤ 10 pM

target: T3, Spike protein of patient-derived SARS-CoV-2 (D614G) (SARS-CoV-2, UniProt P0DTC2 14-1273); assay: cell-based or functional assay

Binder	Lowest neutralizing VHH concentration
B3	50000 pM and 750 µg/liter
B4	17000 pM and 250 µg/liter
B5	1700 pM and 25 µg/liter
B6	50000 pM and 750 µg/liter
B7	170 pM and 4 µg/liter
B8	5000 pM and 75 µg/liter

target: quadruple (K417T, L452R, E484K, N501Y) RBD mutant (SARS-CoV-2, UniProt P0DTC2 319-541); assay: method not stated

Binder	fold better binding than Re9B09	Kd
B9	100 fold	
B10		30 pM

target: T1, SARS-CoV-2 spike receptor-binding …; assay: method not stated

Binder	Kd
B11	≤ 1 pM
B10	30 pM

target: T4, Californian RBD mutant (L452R) (SARS-CoV-2, UniProt P0DTC2 319-541); assay: method not stated

Binder	Kd
B12	~400 pM

target: T1, SARS-CoV-2 spike receptor-binding …; assay: BLI, biotinylated VHH on streptavidin sensor, RBD in solution

Binder	Kd
B11	≤ 10 pM
B13	≤ 10 pM
B14	≤ 10 pM
B15	≤ 10 pM
B10	40 pM

target: T2, B.1.617.2/Delta RBD (40592-V08H90, Sino …); assay: as above

Binder	Kd
B11	≤ 10 pM
B13	30 pM
B14	80 pM
B15	100 pM
B10	40 pM

target: Brazilian RBD mutant (K417T, E484K, N501Y) (SARS-CoV-2, UniProt P0DTC2 319-541); assay: BLI

Binder	Kd
B11	≤ 10 pM

target: South African RBD mutant (K417N, E484K, N501Y) (SARS-CoV-2, UniProt P0DTC2 319-541); assay: BLI

Binder	Kd
B11	≤ 10 pM

target: T4, Californian RBD mutant (L452R); assay: BLI

Binder	Kd
B11	50 pM

target: T3, Spike protein of patient-derived …; assay: cell-based or functional assay; remark: another data set of the same source

Binder	viral RNA in supernatants of infected cells (qRT-PCR), fold inhibition
B3	~300 fold

target: T3, Spike protein of patient-derived …; assay: cell-based or functional assay; remark: another data set of the same source

Binder	Lowest SARS-COV-2-neutralizing concentration
B11	50 pM
B16	500 pM
B3	170000 pM
B4	17000 pM
B15	170 pM
B9	170 pM
B5	500 pM
B17	500 pM
B18	500 pM
B10	1700 pM
B19	170 pM
B20	50000 pM
B21	50 pM
B22	50 pM
B23	50 pM
B24	50 pM
